Data from patent EP4342487A2, “PHARMACEUTICAL COMPOSITION COMPRISING GIP DERIVATIVE OR LONG-ACTING CONJUGATE THEREOF FOR PREVENTING OR TREATING PULMONARY DISEASE” (Hanmi Pharm. Co., Ltd., priority 2021, dated 2022).
Where no end group is shown, it is not given here. [ ]: non-standard residue; d: D form. Aib = CC(C)(N)C(=O)O

B1: GIP derivative of SEQ ID NO: 11 (peptide)
peptide: Y[Aib]EGTFISDYSIAMDAIAQQDFVNWLLAQKGKKNDWKHNITQC
modifications: not fully specified; printed as YAibEGT FISDYSIAMDAIAQQDFVNWLLAQKGKKNDWKHNITQC

Biological target: T1, human GIP receptor (human, UniProt P48546 22-466)
T1 sequence (looked up): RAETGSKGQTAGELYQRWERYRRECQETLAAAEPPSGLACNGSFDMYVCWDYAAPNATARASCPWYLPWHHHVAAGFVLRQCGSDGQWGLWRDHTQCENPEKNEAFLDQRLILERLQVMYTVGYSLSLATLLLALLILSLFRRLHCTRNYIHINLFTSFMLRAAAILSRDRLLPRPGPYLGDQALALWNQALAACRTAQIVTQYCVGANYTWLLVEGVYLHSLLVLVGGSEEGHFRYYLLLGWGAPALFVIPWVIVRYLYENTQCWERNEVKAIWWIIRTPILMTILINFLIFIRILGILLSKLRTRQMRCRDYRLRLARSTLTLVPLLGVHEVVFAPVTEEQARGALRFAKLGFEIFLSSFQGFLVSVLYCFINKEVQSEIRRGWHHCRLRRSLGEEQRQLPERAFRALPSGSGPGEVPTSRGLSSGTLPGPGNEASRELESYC
Experiment: cell-based or functional assay

Binder	In vitro activity (%) of GIP derivatives compared to human native GIP in human GIP receptors (EC50 from accumulated cAMP, CHO cells expressing the human GIP receptor) [%]
Y[Aib]EGTFISDYSIYLDAQAAKDFVNWLLAGGPSSGAPPPSC (not fully specified) [GIP derivative of SEQ ID NO: 9]	2
Y[Aib]EGTFISDYSI[Aib]MDAIAQQDFVNWLLAGGPSSGAPPPSC (not fully specified) [GIP derivative of SEQ ID NO: 3]	15.6
B1	122
Y[Aib]EGTFISDYSIYLDAIAQQDFVNWLLAGGPSSGAPPPSC (not fully specified) [GIP derivative of SEQ ID NO: 6]	17.4
Y[Aib]EGTFISDYSIYLDAQAAKEFIAWLLAGGPSSGAPPPSC (not fully specified) [GIP derivative of SEQ ID NO: 10]	13.9
Y[Aib]EGTFISDYSIYLDKQAA[Aib]EFVQWLIAGHPSSGAPPPC (not fully specified) [GIP derivative of SEQ ID NO: 26]	66.7
Y[Aib]EGTFISDYSIAMDAIAQQDFVNWLLAQKPSSGAPPPSC (not fully specified) [GIP derivative of SEQ ID NO: 1]	49.3
Y[Aib]EGTFISDYSIYLDAQAQQDFVNWLLAGGPSSGAPPPSC (not fully specified) [GIP derivative of SEQ ID NO: 7]	19.6
Y[Aib]EGTFISDYSIAMDAIAQQDFVNWLLAGGPSSGAPPPSC (not fully specified) [GIP derivative of SEQ ID NO: 2]	13.9
Y[Aib]EGTFISDYSIYLDKQAA[Aib]EFVNWLL[Aib]GGPSSGAPPPSC (not fully specified) [GIP derivative of SEQ ID NO: 20]	75.3
Y[Aib]EGTFISDYSIYLDKQAA[Aib]EFVQWLI[Aib]GGPSSGAPPPSC (not fully specified) [GIP derivative of SEQ ID NO: 25]	78.3
Y[Aib]EGTFISDYSIYLDAQAA[Aib]DFVNWLLAGGPSSGAPPPSC (not fully specified) [GIP derivative of SEQ ID NO: 8]	1.9
Y[Aib]EGTFISDYSIYMDAIAQQDFVNWLLAGGPSSGAPPPSC (not fully specified) [GIP derivative of SEQ ID NO: 4]	10.5
Y[Aib]EGTFISDYSIAMDGIAQQDFVNWLLAQKPSSGAPPPSC (not fully specified) [GIP derivative of SEQ ID NO: 16]	11.3
Y[Aib]EGTFISDYSI[Aib]LDKQAA[Aib]EFVNWLL[Aib]GGPSSGAPPPSC (not fully specified) [GIP derivative of SEQ ID NO: 21]	123
Y[Aib]EGTFISDYSIYLDKQAA[Aib]EFVNWLLAGHPSSGAPPPSC (not fully specified) [GIP derivative of SEQ ID NO: 22]	71.6
Y[Aib]EGTFISDYSIYLDKQAAQEFVNWLLAQKPSSGAPPPSC (not fully specified) [GIP derivative of SEQ ID NO: 18]	13.6
Y[Aib]EGTFISDYSIYLDKQAA[Aib]EFVNWLLAQKC (not fully specified) [GIP derivative of SEQ ID NO: 13]	31.1
Y[Aib]EGTFISDYSIQMDAIAQQDFVNWLLAGGPSSGAPPPSC (not fully specified) [GIP derivative of SEQ ID NO: 5]	12.1
Y[Aib]EGTFISDYSIYLDAQAA[Aib]EFVNWLLAQKC (not fully specified) [GIP derivative of SEQ ID NO: 14]	17.4
Y[Aib]EGTFISDYSIAMDKIAQQDFVNWLLAQKPSSGAPPPSC (not fully specified) [GIP derivative of SEQ ID NO: 15]	31.1
Y[Aib]EGTFISDYSIYLDKQAA[Aib]EFVNWLL[Aib]GHPSSGAPPPSC (not fully specified) [GIP derivative of SEQ ID NO: 19]	66.7
Y[Aib]EGTFISDYSI[Aib]LDKQAA[Aib]EFVNWLL[Aib]GHPSSGAPPPSC (not fully specified) [GIP derivative of SEQ ID NO: 24]	183
Y[Aib]EGTFISDYSIYLDKQAQKEFVNWLL[Aib]GGPSSGAPPPSC (not fully specified) [GIP derivative of SEQ ID NO: 23]	87.6
Y[Aib]EGTFISDYSIALEKQAQQDFVNWLLAGGPSSGAPPPSC (not fully specified) [GIP derivative of SEQ ID NO: 17]	111
